Data as given in PMC8038350, “Nordihydroguaiaretic Acid as a Novel Substrate and Inhibitor of Catechol O-Methyltransferase Modulates 4-Hydroxyestradiol-Induced Cyto- and Genotoxicity in MCF-7 Cells” (Molecules, 2021).

Substrate: [H][C@@]12CCc3c(ccc(O)c3O)[C@@]1([H])CC[C@]1(C)[C@@H](O)CC[C@@]21[H]
Assay: enzyme kinetics of O-methylation by recombinant COMT, HPLC-DAD (Km)
Type: biochemical, Homo sapiens
Details: S-adenosyl-L-methionine (SAM)

B1: catechol O-methyl transferase (COMT) (Homo sapiens) (protein)
chain: MGDTKEQRILNHVLQHAEPGNAQSVLEAIDTYCEQKEWAMNVGDKKGKIVDAVIQEHQPSVLLELGAYCGYSAVRMARLLSPGARLITIEINPDCAAITQRMVDFAGVKDKVTLVVGASQDIIPQLKKKYDVDTLDMVFLDHWKDRYLPDTLLLEECGLLRKGTVLLADNVICPGAPDFLAHVRGSSCFECTHYQSFLEYREVVDGLEKAIYKGPGSEAGP
notes: recombinant human soluble COMT, hexahistidine-tagged
With B1 the Km (Mg2+) was 37.9 µM and the Vmax (Mg2+ docking only: active site, hydrogen bonds with Glu199 and Asn170) was 3.26 µmol/min/mg.
